Results reported in patent US11059903B2, “Anti-PSMA antibodies, uses thereof and conjugates thereof” (Polytherics Limited, priority 2016, dated 2021).
Square brackets hold non-standard residues; d marks the D form. Peptide text beside a SMILES is read from it. * marks the point of attachment. Dolaproine = CO[C@@H]([C@@H]1CCCN1)[C@@H](C)C(=O)O; Dil = CC[C@H](C)[C@H](NC)[C@@H](CC(=O)O)OC; X1 = C[C@@H](N*)[C@@H](O)c1ccccc1; NMeV = CN[C@H](C(=O)O)C(C)C

Tests used:
[1] = Heat stress test, aggregation analysed by SEC; assay type: physicochemical
Description: Antibody samples (0.5 mg/mL in PBS) were incubated at 75° C. for 30 min followed by incubation in an ice-bath for 5 min prior to being analysed for their extent of aggregation. Analysis of antibody solutions was carried out by Size Exclusion Chromatography (SEC) and by turbidity measurements.
SEC was performed using a TOSOH Bioscience TSK gel Super SW 3000 column. UV absorbance at 280 nm was monitored during an isocratic elution with a 0.2 M Potassium phosphate buffer, pH 6.8 (0.2 M potassium chloride and 15% isopropanol). The elution times and number of peaks indicate whether the sample contains aggregated, degraded or native antibody. The % area under the curve (Abs280) was used to determine the quantity of each species present in the SEC analysis.

LNCaP cells = assay: In vitro cell viability assay (CellTiter Glo) on LNCaP cells; assay type: cell-based; settings: anti-proliferative effect, 96 h
Description: (§1) The in vitro efficacies of ADCs 1 to 7, prepared as described within Example 4, were determined by measuring their inhibitory effect upon cell growth of PSMA over-expressing cancer cell lines.
(§2) Loss of tumour cell viability following treatment with cytotoxic drugs or ADCs in vitro can be measured by growing cell lines in the presence of increasing concentrations of drugs or ADCs and quantifying the loss of proliferation or metabolic activity using CellTiter Glo® Luminescence reagent (Promega Corp.). The protocol describes cell seeding, drug treatment and determination of the cell viability in reference to untreated cells based on ATP synthesis, which is directly related to the number of cells present in the well. […]
(§3) The cell viability assay was carried out using the Cell-Titer Glo® Luminescence reagent, as described by the manufacturer's instructions, (Promega Corp. Technical Bulletin TB288; Lewis Phillips G. D, Cancer Res 2008; 68:9280-9290). Luminescence was recorded using a plate reader (e.g. Molecular Devices Spectramax M3 plate reader), and data subsequently analysed using a four parameter non-linear regression model. […]
(§4) PSMA-positive LNCaP (clone FGC) and C4-2 cells were detached with TrypLE and resuspended in complete medium. Cells were counted using disposable Neubauer counting chambers and cell density adjusted to 10×10^4 cells/mL for LNCaP and 2×10^4 cells/mL for C4-2. […]

C4-2 cells = assay: In vitro cell viability assay (CellTiter Glo) on C4-2 cells; assay type: cell-based; settings: anti-proliferative effect, 96 h
Description: as §1, §2, §3, §4

[2] = post stress test: 0.5 mg/mL in PBS, 75° C. for 30 min, SEC % area

| Molecule | Stability compared with AB-02 to AB-06 antibodies ([1]; heat stress test, in words) | Ab in aggregated form (%) [1, 2] [%] | Ab in native conformation (%) [1, 2] [%] | IC50 (LNCaP cells) [nM] | IC50 (C4-2 cells) [nM] |
| --- | --- | --- | --- | --- | --- |
| AB-10: Prior art de-immunised J591 anti-PSMA antibody, heavy chain SEQ ID No 3, light chain SEQ ID No 4 [reference compound] | less stable | 99.6 | 0.4 | – | – |
| CC[C@H](C)[C@@H]([C@@H](CC(=O)N1CCC[C@H]1[C@H](OC)[C@@H](C)C(=O)N[C@H](C)[C@@H](O)c1ccccc1)OC)N(C)C(=O)[C@@H](NC(=O)[C@@H](NC)C(C)C)C(C)C [MMAE] (H-[NMeV]V[Dil][Dolaproine]-X1) | – | – | – | 2.23 | 0.63 |
